This experiment has as its target T1, yeast Rnr1p (Saccharomyces cerevisiae, UniProt P21524).
T1 construct: made in house; host or cells: E. coli BL21 (DE3), pET3a
T1 sequence (P21524 1-888): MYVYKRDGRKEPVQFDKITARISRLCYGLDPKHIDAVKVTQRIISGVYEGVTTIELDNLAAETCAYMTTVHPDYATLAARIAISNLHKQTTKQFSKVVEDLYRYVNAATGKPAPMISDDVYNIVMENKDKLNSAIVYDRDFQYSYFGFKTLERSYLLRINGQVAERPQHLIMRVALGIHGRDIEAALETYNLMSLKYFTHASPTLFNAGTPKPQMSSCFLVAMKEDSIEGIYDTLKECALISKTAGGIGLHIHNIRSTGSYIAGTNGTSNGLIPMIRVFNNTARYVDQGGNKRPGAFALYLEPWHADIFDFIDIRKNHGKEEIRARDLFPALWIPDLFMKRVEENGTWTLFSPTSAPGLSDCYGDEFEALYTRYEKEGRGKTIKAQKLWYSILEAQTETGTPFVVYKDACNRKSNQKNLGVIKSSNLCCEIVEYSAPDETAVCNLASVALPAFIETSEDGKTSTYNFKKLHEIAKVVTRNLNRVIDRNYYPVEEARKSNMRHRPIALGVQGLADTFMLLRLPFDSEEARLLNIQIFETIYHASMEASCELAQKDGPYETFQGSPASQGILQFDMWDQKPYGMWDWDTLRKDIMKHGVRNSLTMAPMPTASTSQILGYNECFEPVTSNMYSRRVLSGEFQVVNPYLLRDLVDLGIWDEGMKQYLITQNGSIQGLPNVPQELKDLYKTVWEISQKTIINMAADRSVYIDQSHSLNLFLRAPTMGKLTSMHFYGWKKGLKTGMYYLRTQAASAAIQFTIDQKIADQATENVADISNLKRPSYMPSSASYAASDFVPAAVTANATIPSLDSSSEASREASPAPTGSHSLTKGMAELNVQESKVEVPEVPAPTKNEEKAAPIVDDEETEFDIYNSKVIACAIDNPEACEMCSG
As to the kind of experiment: sucrose gradient centrifugation of Rnr1p with Sml1p. It counts as binding. The following applies: 500 μg Rnr1p, 90 μg Sml1 protein, 0.1 mM dTTP. Here is the method:
FIG. 11 Sucrose gradient centrifugation of yeast Rnr1p in the absence or in the presence of dTTP, with or without Sml1p. Sedimentation (from the right to the left) was performed as described in Materials and Methods. Catalase (s20,w=11.4 S) sedimented in fraction 14 (arrow). Thick line, Rnr1 protein sedimented alone without dTTP or Sml1p. The two peaks represent the dimer (fraction 21) and monomer (fraction 25) positions in the gradient. Hatched line, Rnr1p sedimented in the presence of dTTP. Most of the material now sedimented as tetramers (fraction 5) or dimers (fraction 21). Note that the small peak sedimenting at fraction 26 represents an impurity in the Rnr1p preparation (the band just below the R1 band in the gel insert). The sedimentation of this material is not affected by dTTP. […]
Sucrose gradient centrifugation. […] Aliquots of each fraction were removed for spectrophotometric assay of catalase activity (20); protein concentration as determined by the Bradford method (21); or SDS-PAGE analysis.
Interaction between yeast Rnr1 protein and Sml1 protein assayed by sucrose gradient centrifugation. […] To test if Sml1p binding to the Rnr1p might interfere with Rnr1p dimer formation and thereby inhibit RNR activity, we preincubated Rnr1p and Sml1p in the presence of the allosteric effector dTTP; we then analyzed the mixture on a sucrose gradient (FIG. 11). […]

Results on 1 molecule are retold here after patent US7125658B2, “Small protein that interacts with a ribonucleotide reductase subunit and uses thereof” (The Trustees of Columbia University in the City of New York, priority 1998, dated 2006).

B1: Sml1p: 104 amino acid yeast protein encoded by YML058w (SML1) that binds Rnr1 and inhibits ribonucleotide reductase; recombinant, expressed in E. coli (protein)
chain: MQNSQDYFYAQNRCQQQQAPSTLRTVTMAEFRRVPLPPMAEVPMLSTQNSMGSSASASASSLEMWEKDLEERLNSIDHDMNNNKFGSGELKSMFNQGKVEEMDF
On to B1, for which the “effect on Rnr1p monomer/dimer equilibrium” value is given as “did not influence the monomer/dimer equilibrium”.
